Experimental data taken from patent publication US20210338779A1, “THERAPEUTIC USE OF GLUCAGON AND COMBINATION INCLUDING THE SAME” (HANMI PHARM. CO., LTD, priority 2018, published 2021).
Like-named read-outs stand apart in the source and are kept apart here. Positions of bridges follow the written chain, without caps; N, C: chain ends. Non-standard residues stand in square brackets, D forms with d. No end group written: not given here. Aib = CC(C)(N)C(=O)O

What was measured:
[1] = cited from earlier work
human glucagon receptor = human glucagon receptor (human, UniProt P47871 26-477); experiment: cell-based or functional assay
Chain of human glucagon receptor (P47871 26-477): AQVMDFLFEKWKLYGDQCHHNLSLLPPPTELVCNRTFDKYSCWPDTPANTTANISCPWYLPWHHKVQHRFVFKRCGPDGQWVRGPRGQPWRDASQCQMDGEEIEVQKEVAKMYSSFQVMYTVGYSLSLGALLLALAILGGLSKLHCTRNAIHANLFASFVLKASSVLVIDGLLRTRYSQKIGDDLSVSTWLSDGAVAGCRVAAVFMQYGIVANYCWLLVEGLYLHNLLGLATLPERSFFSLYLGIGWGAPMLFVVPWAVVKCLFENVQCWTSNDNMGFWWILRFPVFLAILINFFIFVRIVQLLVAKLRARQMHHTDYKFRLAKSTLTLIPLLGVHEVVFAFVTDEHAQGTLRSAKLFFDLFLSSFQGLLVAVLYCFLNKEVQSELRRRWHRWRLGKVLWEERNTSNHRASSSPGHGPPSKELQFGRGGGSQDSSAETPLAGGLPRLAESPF

Molecule | in vitro activity (%, relative to SEQ ID NO: 1); cAMP assay, from EC50 (human glucagon receptor) | further results
CCCCCCCCCCC[C@@H](C[C@@H]1OC(=O)[C@H]1CCCCCC)OC(=O)[C@H](CC(C)C)NC=O [Orlistat] | – | weight loss ([1]; when taken for one year): about 4 kg
Cc1c(C(=O)NN2CCCCC2)nn(-c2ccc(Cl)cc2Cl)c1-c1ccc(Cl)cc1 [Rimonabant] | – | side-effects ([1]; reported): side-effect of central nervous system disorder
CC(C)CC(N(C)C)C1(c2ccc(Cl)cc2)CCC1 (stereo not drawn) [Sibutramine] | – | side-effects ([1]; reported): cardiovascular side-effects
Contrave | – | side-effects ([1]; in vivo): cardiovascular side-effects
Y[Aib]QGTFTSDYSKYLDCVRAQDFVQWLMRT [glucagon derivative of SEQ ID NO: 17] | 23.2% | –
Y[Aib]QGTFVSDYSKYLDECRAKDFVQWLMNT (lactam 16-20) [glucagon derivative of SEQ ID NO: 27] | 93.6% | –
Y[Aib]QGTFTSDCSKYLDSRRAQDFVQWLMNT [glucagon derivative of SEQ ID NO: 43] | 1.6% | –
Y[Aib]QGTFTSDYSKYLDEKRCKEFVQWLMNT (lactam 16-20) [glucagon derivative of SEQ ID NO: 22] | 148% | –
Y[Aib]QGTFTSDYSKYLCEKRAKEFVQWLMNT (lactam 16-20) [glucagon derivative of SEQ ID NO: 19] | 12.1% | –
HSQGTFTSDYSKYLDCDRAQDFVQWLMNT [glucagon derivative of SEQ ID NO: 2] | 0.6% | –
HSQGTFTSDYSKYLDSCEADDFVQWLMNT [glucagon derivative of SEQ ID NO: 6] | < 0.1% | –
W[Aib]QGTFVSDYSKYLDECRAKDFVQWLMNT (lactam 16-20) [glucagon derivative of SEQ ID NO: 28] | < 0.1% | –
Y[Aib]QGTFTSDYSKYLDCKRAKEFVQWLMNT (lactam 17-21) [glucagon derivative of SEQ ID NO: 31] | 6.3% | –
Y[Aib]QGTFCSDYSKYLDERRAKDFVQWLMNT (lactam 16-20) [glucagon derivative of SEQ ID NO: 41] | 45.2% | –
Y[Aib]QGTFTSDYSKYLDSCDAQDFVQWLINT [glucagon derivative of SEQ ID NO: 8] | < 0.1% | –
Y[Aib]QGTFTSDYSKYLDCRRAQVFVQWLMRT [glucagon derivative of SEQ ID NO: 16] | 4.2% | –
Y[Aib]QGTFTSDYSKYCDEKRAKEFVQWLMNT (lactam 16-20) [glucagon derivative of SEQ ID NO: 23] | 76.8% | –
Y[Aib]QGTFTSDYSKCLDERRAKDFVQWLMNT (lactam 16-20) [glucagon derivative of SEQ ID NO: 29] | 61.3% | –
HSQGTFTSDYSKYLDCERAQDFVQWLMNT [glucagon derivative of SEQ ID NO: 3] | 6.1% | –
SQGTFTSDYSKYLDECRAKEFVQWLMNT (lactam 15-19) [glucagon derivative of SEQ ID NO: 32] | 0.7% | –
W[Aib]QGTFTSDYSKYLDECRAKDFVQWLMNT (lactam 16-20) [glucagon derivative of SEQ ID NO: 26] | 1% | –
HSQGTFTSDYSKYLDSCDAQDFVQWLMNT [glucagon derivative of SEQ ID NO: 4] | < 0.1% | –
Y[Aib]QGTFTSDYSKCLDEKRAKEFVQWLMNT (lactam 16-20) [glucagon derivative of SEQ ID NO: 24] | 58% | –

Molecule | in vitro activity (%, relative to SEQ ID NO: 1); cAMP assay, from EC50 (human glucagon receptor) | further results
Y[Aib]QGTFTSDYSKYLDECRAKEFVQWLMNT (lactam 16-20) [glucagon derivative of SEQ ID NO: 20] | 300% | –
Y[Aib]QGTFTSDYSKYLDEKRAKEFVQWLMNTC (lactam 16-20) [glucagon derivative of SEQ ID NO: 12] | 56.3% | –
Y[Aib]QGTFTSDYSKYLDEKCAKEFVQWLMNT [glucagon derivative of SEQ ID NO: 11] | 4.6% | –
Y[Aib]QGTFTSDYSKYLDEKCAKEFVQWLMNT (lactam 16-20) [glucagon derivative of SEQ ID NO: 21] | 57.8% | –
HSQGTFTSDYSKYLDSCEAQDFVQWLMNT [glucagon derivative of SEQ ID NO: 5] | 0.3% | –
Y[Aib]QGTFTSDYSKYCDERRAKEFVQWLMNT (lactam 16-20) [glucagon derivative of SEQ ID NO: 35] | 17.7% | –
Y[Aib]QGTFCSDYSKYLDSRRAQDFVQWLMNT [glucagon derivative of SEQ ID NO: 42] | 37.9% | –
YSQGTFTSDYSKYLDSCEADDFVQWLMNT [glucagon derivative of SEQ ID NO: 7] | < 0.1% | –
Y[Aib]QGTFVSDCSKYLDERRAKDFVQWLMNT (lactam 16-20) [glucagon derivative of SEQ ID NO: 39] | 3.7% | –
Y[Aib]QGTFTSDYSKYLDSCDAQDFVVWLINT [glucagon derivative of SEQ ID NO: 9] | < 0.1% | –
W[Aib]QGTFTSDYSKYCDERRAKEFVQWLMNT (lactam 16-20) [glucagon derivative of SEQ ID NO: 34] | 0.2% | –
Y[Aib]QGTFTSDYSKYLDSCDADDFVVWLINT [glucagon derivative of SEQ ID NO: 10] | < 0.1% | –
Y[Aib]QGTFTSDYSKYLDSRRACDFRLWLMNT [glucagon derivative of SEQ ID NO: 18] | < 0.1% | –
Y[Aib]QGTFTSDCSKYLDERRAKEFVQWLMNT (lactam 16-20) [glucagon derivative of SEQ ID NO: 36] | 9.9% | –
Y[Aib]QGTFTSDYSKYLDCKRAKEFVQWLMNT [glucagon derivative of SEQ ID NO: 14] | 18.1% | –
Y[Aib]QGTFTSDYSKYLCEKRAQDFVVWLMNT [glucagon derivative of SEQ ID NO: 15] | 1.1% | –
YXQGTFTSDYSKYLDSRRAQDFVQWLMNTC (X at position 2 = aminoisobutyric acid (Aib)) [glucagon derivative of SEQ ID NO: 44] | 75.4% | –
YXQGTFTSDYSKYLDSRRAQDFVQWLMNT (X at position 2 = aminoisobutyric acid (Aib)) [glucagon derivative of SEQ ID NO: 33] | 108% | –
Y[Aib]QGTFCSDYSKYLDERRAKEFVQWLMNT (lactam 16-20) [glucagon derivative of SEQ ID NO: 38] | 167% | –
Y[Aib]QGTFVSDYSKYLDERRAKDFVQWLMNTC (lactam 16-20) [glucagon derivative of SEQ ID NO: 40] | 40.8% | –
W[Aib]QGTFTSDYSKCLDERRAKDFVQWLMNT (lactam 16-20) [glucagon derivative of SEQ ID NO: 30] | 0.3% | –
Y[Aib]QGTFTSDYSKYLDEKRAKCFVQWLMNT (lactam 16-20) [glucagon derivative of SEQ ID NO: 25] | 46.9% | –
